Results: paper PMC4739419, “Mutations in the nucleotide binding and hydrolysis domains of Helicobacter pylori MutS2 lead to altered biochemical activities and inactivation of its in vivo function” (BMC Microbiology, 2016)

Columns and labels:
[1] = molecular target: T1, HpMutS2 (Helicobacter pylori, UniProt O25338); type: biochemical; conditions: for support of HpMutS2 ATPase activity by metal ion: metal ion 5 mM, ATP 100 μM, HpMutS2 45 nM, 37 °C, 30 min
T1 construct: (A) HpMutS2 (1-762): Mol. wt; (kDa): 87.8; His6 (C); made in house; host or cells: E. coli Rosetta (DE3) pLysS
Procedure: To delineate the characteristics of the ATPase activity of HpMutS2, we initially determined the metal ion requirement for ATP hydrolysis by HpMutS2. Purified HpMutS2 was incubated with excess of cold ATP (100 μM) with or without metal ions (5 mM each), and ATP hydrolysis monitored by thin layer chromatography using radiolabeled ATP [γ-^32P] as tracer.
Additional files 1: Figure S1. Multiple sequence alignment of MutS2 proteins from different H. pylori strains. Multiple sequence alignment of MutS2 proteins from different bacteria was carried out using Clustal Omega (http://www.ebi.ac.uk/Tools/msa/clustalo/). The protein sequences were obtained from NCBI protein database. The conserved nucleotide binding Walker-A motif and nucleotde hydrolysis Walker-B motifs are framed. The arrow indicates H. pylori MutS2 protein sequence. Figure S2. ATPase activity of HpMutS2 and variants. (A) Divalent metal ion requirement for ATPase activity of HpMutS2. Mentioned divalent metal ions (5 mM each) were incubated separately with cold ATP (100 μM) with (+) or without (−) HpMutS2 (45 nM). After incubation at 37 °C for 30 min the reactions were stopped by EDTA (50 mM) and the products were separated by TLC. ATP [γ-^32P] was used as tracer to monitor the product formation. (B) Time dependent hydrolysis of ATP by HpMutS2. A mixture of cold ATP (1 mM) and ATP [γ-^32P] was incubated in presence of HpMutS2 (45 nM) at 37 °C . The reaction aliquots were removed at indicated time points. The reactions were stopped by adding EDTA (50 mM) and products were separated by TLC. […] (C) Effect of HpSmr domain deletion on ATPase activity of HpMutS2. Increasing concentrations of proteins were incubated with a mixture of cold ATP (1 mM) and ATP [γ-^32P] at 37 °C for 30 min. The reactions were processed as described in (A). […] Figure S3. Limited proteolysis. Proteins (4 μM) were incubated with chymotrypsin (1.25 ng) for 30 min at 37 °C. The heat denaturation of proteins was performed by heating them at 95 °C for 10 min. […] Reactions were stopped by adding 1X protease inhibitor cocktail (Sigma), heat denatured and the products were separated on SDS-PAGE (10 %). Lane M: Molecular weight marker. Protein bands were detected by staining with Coomassie Brilliant Blue. […]. […] (A-E) Effect of nucleotides on DNA binding properties of HpMutS2. Electrophoretic mobility shift assays were performed with indicated DNA substrates (0.16 nM) without and with nucleotides (1 mM). After incubation for 30 min on ice, the reaction mixture was electrophoresed on polyacrylamide gel (8 %). Schematic representation of DNA substrates used are shown at the left side of autoradiographs. Figure S5. Chase experiments. A preformed ssDNA-HpMutS2 complex was chased with increasing concentrations of (A) ATP (0.25–5 mM) and (B) ssDNA (7.5–500 nM). (C) A preformed SC pUC19 DNA-HpMutS2 complex was chased with increasing concentrations of ATP (0.25–5 mM) . The reactions were performed at 37 °C and the reaction mixture was electrophoresed on PAGE (8 %) in case of (A and B) or an agarose gel (0.8 %) in case of (C). The amount of displaced DNA was estimated by assuming the DNA without protein as 100 %. Figure S6. Western blot. Equal numbers of exponentially growing H. pylori cells were lysed in Laemmli buffer (1X) by boiling at 95 °C for 5 min. The proteins were separated by SDS-PAGE (10 %). The HpMutS2 and mutants were detected by probing with polyclonal antibodies against HpMutS2. Table S1. Sequence of oligonucleotides used to prepare DNA substrates. Table S2. DNA substrates used in this study (* represents position of ^32P). (PDF 636 kb)

[2] = tested on: Nc1ncnc2c1ncn2[C@@H]1O[C@H](COP(=O)(O)OP(=O)(O)OP(=O)(O)O)[C@@H](O)[C@H]1O; assay: purified protein, by the assay type; conditions: pH 8.0; 37.0 °C
[3] = substrate: Nc1ncnc2c1ncn2[C@@H]1O[C@H](COP(=O)(O)OP(=O)(O)OP(=O)(O)O)[C@@H](O)[C@H]1O; assay: ATPase assay by thin layer chromatography with [γ-32P]ATP as tracer and cold ATP varied, 50 mM Tris pH 8.0, 50 mM NaCl, 1 mM DTT, 5 mM MgCl2, 37 °C, no DNA, Michaelis-Menten non-linear regression.; type: biochemical
[4] = molecular target: the molecule itself; assay: SEC; Superose-6 HR 10/30, buffer B (50 mM Tris pH 8.0, 100 mM NaCl), 0.3 ml/min, approximately 150 ug protein injected; mass from a plot of Ve/Vo versus log of molecular mass of standards

O=C(O)CN(CCN(CC(=O)O)CC(=O)O)CC(=O)O [EDTA]
effect on Mg2+ dependent ATPase activity [1]: inhibited

[Ni+2] [Ni^2+]
support of HpMutS2 ATPase activity by metal ion [1]: did not significantly support the ATPase activity

[Mg+2] [Mg^2+]
support of HpMutS2 ATPase activity by metal ion [1]: supported a strong ATPase activity

[Cd+2] [Cd ^2+]
support of HpMutS2 ATPase activity by metal ion [1]: allowed the ATPase activity to various extents

[Cu+2] [Cu^2+]
support of HpMutS2 ATPase activity by metal ion [1]: allowed the ATPase activity to various extents

[Mn+2] [Mn^2+]
support of HpMutS2 ATPase activity by metal ion [1]: allowed the ATPase activity to various extents

[Co+2] [Co^2+]
support of HpMutS2 ATPase activity by metal ion [1]: allowed the ATPase activity to various extents

HpMutS2-E413A (Helicobacter pylori 26695; E413A)
Km [2]: 373.2 ± 188.6 µM
Vmax [2]: 0.19 µM/min
kcat [2]: 0.0703 ± 0.011 s⁻¹

[Ca+2] [Ca^2+]
support of HpMutS2 ATPase activity by metal ion [1]: allowed the ATPase activity to various extents

HpMutS2-G338R (Helicobacter pylori 26695; G338R)
Km [2]: 939.3 ± 489.2 µM
Vmax [2]: 0.64 µM/min
kcat [2]: 0.237 ± 0.0555 s⁻¹

[Zn+2] [Zn^2+]
support of HpMutS2 ATPase activity by metal ion [1]: allowed the ATPase activity to various extents

B1: Helicobacter pylori MutS2 (enzyme, Helicobacter pylori strain 26695, UniProt O25338 1-762, looked up)
chain: MSDAPKRSLNPTLMMNNNNTPPKPLEESLDLKEFIALFKTFFAKERDTIALENDLKQTFTYLNEVDAIGLPTPKSVKESDLIIIKLTKLGTLHLDEIFEIVKRLHYIVVLQNAFKTFTHLKFHERLNAIVLPPFFNDLIALFDDEGKIKQGANATLDALNESLNRLKKESVKIIHHYARSKELAPYLVDTQSHLKHGYECLLLKSGFSGAIKGVVLERSANGYFYLLPESAQKIAQKIAQIGNEIDCCIVEMCQTLSHSLQKHLLFLKFLFKEFDFLDSLQARLNFAKAYNLEFVMPSFTQKKMILENFSHPILKEPKPLNLKFEKSMLAVTGVNAGGKTMLLKSLLSAAFLSKHLIPMKINAHHSIIPYFKEIHAIINDPQNSANNISTFAGRMKQFSALLSKENMLLGVDEIELGTDADEASSLYKTLLEKLLKQNNQIIITTHHKRLSVLMAENKEVELLAALYDEEKERPTYTFLKGVIGKSYAFETALRYGVPHFLIEKAKTFYGEDKEKLNVLIENSSALERELKQKNEHLENALKEQEYLKNAWLLEMEKQKEIFHNKKLELEKSYQQALNILKSEVASKDTSSMHKEIHKASEILSKHKTNQEIPQIITNFQANEKARYKNESVLIVQILDKGYYWIETELGMRLKAHGSLLKKIQKPPKNKFKPPKTTIPKPKEASLRLDLRGQRSEEALDLLDAFLNDALLGGFEEVLICHGKGSGILEKFVKEFLKNHPKVVSFSDAPINLGGSGVKIVKL
notes: MutS2 of Helicobacter pylori strain 26695, full length, cloned in pET28b; Tetramer by gel filtration; a small fraction elutes near the void volume as multimers; also called HpMutS2; wild-type HpMutS2
Km [3]: 412.1 ± 83.43 µM
Vmax [3]: 1.88 µM/min
kcat [3]: 0.696 ± 0.048 s⁻¹
stoichiometry N [4]: 4
